Assay results reported in patent publication US8715959B2, “Substitution mutant receptors and their use in a nuclear receptor-based inducible gene expression system” (priority 2001, dated 2014).

Assays:
CfEcR-CDEF = conditions: L57 cells, 40 hours, FIG. 3
From the text: To determine whether the A110P mutant can respond to 20E, Applicants tested this A110P mutant-based gene expression system in an EcRE-driven reporter assay in insect L57 cells (a Drosophila melanogaster cell line that lacks EcR isoform B, the Drosophila melanogaster EcR isoform homolog of CfEcR isoform B from which the A110P mutant is derived, however L57 cells still contain EcR isoform A). The mutation was introduced into the VP16/CfEcR-CDEF fusion protein and operably linked to an baculovirus IE1 promoter and L57 cells were transfected with IE1VP16CfEcRCDEF (Example 1.5) or its A110P mutant version DNA (Example 1.6) along with a pMK43.2 β-galactosidase reporter gene under the control of 6× ecdysone response elements (“6×EcRE”; the pMK43.2 construct was obtained from Michael Koelle at Stanford University) in 24-well plates. Reporter activity for A110P mutant-based gene expression system transactivation was measured after 40 hours of treatment of the transfected cells with 0, 1, 10, 100, or 1000 nM 20E or GS™-E. The cells were harvested and the extracts were assayed for β-galactosidase (β-gal) and luciferase activity. β-Galactosidase was measured using Galacto-Star™ assay kit from TROPIX following the manufacturer's instructions.

CfEcR-A/BCDEF = test: GAL4/full length CfEcR-A/BCDEF or A110P mutant, EcRE-driven luciferase reporter in NIH3T3 cells (FIG. 2); type: cell-based, Choristoneura fumiferana; conditions: 40 hours
From the text: To eliminate the possibility that the loss of steroid activity may be due to the truncated CfEcR-DEF receptor or an artifact of the GAL4 fusion protein, Applicants introduced the A110P mutation into the full length (FL) CfEcR (CfEcR-A/BCDEF), fused it to the GAL4 DNA binding domain as described in Example 1.4, and comparatively assayed it in NIH3T3 cells in 24-well plates as described in Example 2 above with full length wild type CfEcR (Example 1.3) in combination with VP16/LmUSP-EF and pFREcRE Luc that comprised the luciferase reporter gene operatively linked to six copies of the ecdysone response element (6×EcRE) and a synthetic TATAA. The transfected cells were grown in the presence of 0.25 or 10 μM PonA or GS™-E and the reporter activity was measured at 40 hours after adding ligand. The cells were harvested and the extracts were assayed for luciferase activity. The numbers on top of the bars indicate fold increase over DMSO levels.

CfEcR = test: In vitro 3H-PonA ligand binding of CfEcR wild-type and A110 mutants (FIG. 5); parameters: species or system Choristoneura fumiferana; conditions: in vitro translated receptor with GST-CfUSP-A/BCDEF
CfEcR-DEF = test: GAL4/mutant CfEcR-DEF + VP16/LmUSP-EF GAL4-driven luciferase reporter transactivation in NIH3T3 cells; type: cell-based, Choristoneura fumiferana

B1: A110P: CfEcR LBD substitution mutant, Alanine (A) to Proline (P); also made in CfEcR-A/BCDEF and CfEcR-CDEF (protein, listed as Choristoneura fumiferana)
chain: LTANQQFLIARLIWYQDGYEQPSDEDLKRITQTWQQADDENEESDTPFRQITEMTILTVQLIVEFAKGLPGFAKISQPDQITLLKACSSEVMMLRVARRYDAASDSVLFPNNQAYTRDNYRKAGMAYVIEDLLHFCRCMYSMALDNIHYALLTAVVIFSDRPGLEQPQLVEEIQRYYLNTLRIYILNQLSGSARSSVIYGKILSILSELRTLGMQNSNMCISLKLKNRKLPPFLEEIWDV
For B1, the “reporter gene activity in the presence of 20E” value (CfEcR-CDEF; 1-1000 nM 20E) was “slightly increased reporter gene activity”, the “reporter gene expression in the presence of GS™-E” value (CfEcR-CDEF; 1-1000 nM GS™-E) was “transactivated reporter gene expression” and the “non-steroid activity of full length receptor versus full length WT CfEcR” value (CfEcR-A/BCDEF; 0.25 or 10 μM GS™-E) was “no significant difference”. For the same molecule, the “PonA activity of full length receptor” value (CfEcR-A/BCDEF; 0.25 or 10 μM PonA) was “completely lost”, the “PonA binding, of wild-type receptor binding” value (CfEcR) was “undetectable” and the “Fold increase over WT, 2.5 μM GS™-E” value (CfEcR-DEF; 2.5 μM GS™-E non-steroidal ligand, NIH3T3 cells, relative to Gal4/wild-type CfEcR-DEF switch activity) was 0.8 fold. For the same molecule, the “Fold increase over WT, 2.5 μM PonA” value (CfEcR-DEF; 2.5 μM PonA steroidal ligand, NIH3T3 cells, relative to Gal4/wild-type CfEcR-DEF switch activity) was 0.005 fold, the “non-steroid activity (summary of Table 10)” value (CfEcR-DEF; GS™-E, CfEcR-DEF point mutants) was “not significantly affected” and the “steroid binding activity (summary of Table 10)” value (CfEcR-DEF; PonA, CfEcR-DEF point mutants) was “essentially eliminated”.
